In the supplement of paper PMC10567573:

B1: APBB1IP (parent)
chain: SQVSMWDQRWQDHQPLLPITDVP
B2: FBF1 (parent)
chain: FGDSPKAEKRQIGDQEGPRPARST

Variants of: B1
Assay: protein stability index of a GFP-peptide fusion (GPS, HEK-293T) (PSI 1-6); higher = more stable
Conditions: c terminus: native
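Also: lentivirally expressed fusions sorted by FACS into six bins by GFP to DsRed ratio, PSI derived from sequencing read proportions per bin multiplied by bin number.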

Protein stability index, by site and new letter:
V22: W 2.19, H 2.75, L 2.43, D 3.85, P 2.83, G 2.42

Variants of: B2
Assay: as above
Conditions: c terminus: a fixed tail appended

Protein stability index of substitutions, site by site:
G2: E 5.83, H 4.58, S 4.96, N 4.16, Y 5.18, P 5.29, K 4.72, R 5.98, W 5.31, A 4.53, M 4.96, I 3.83, T 4.82, C 4.19, V 1.77, F 4.63, D 4.94, Q 4.99
P5: L 4.58, V 4.13, N 5.53, C 4.63, A 4.85, K 4.43, D 5.72, Q 4.55, F 3.64, H 5, G 4.79, W 1.37, Y 4.86, I 4.89, S 4.84, E 5.24, M 4.88, T 5.19, R 4.75
K9: Y 4.74, G 5.2, N 5.93, D 5.52, H 5.22, F 4.43, Q 5.53, E 5.1, V 4.89, T 5.17, A 4.97, P 5.54, R 5.46, I 5.23, S 5.47
K6: C 5.52, Y 4.8, E 5.25, L 4.84, Q 3.71, P 4.89, A 5.55, W 4.57, V 4.24, T 5.56, D 5.22, I 4.78, F 4.06, S 5.64, N 5.08
R10: K 4.76, L 4.59, S 5.44, D 5.29, A 5.42, E 5.63, I 5.19, Q 4.86, N 5.42, H 4.63, C 5.02, M 5.06
A7: L 5.32, V 3.47, K 5.31, Y 4, F 3.85, N 5.24, H 4.03, S 5.09, R 5.15, E 5.89, Q 5.1, D 5.53, I 5.03, G 4.89, T 4.44
D3: S 4.89, R 4.97, V 5.55, E 5.41, P 5.14, Q 5.25, H 4.49, Y 4.67, C 4.62, W 3.87, A 4.79, T 4.99, N 5.06, I 5.04, M 4.57, F 5.01, L 5.13, K 4.17
F1: W 5.69, M 5.85, H 5.52, N 5.54, A 5.87, P 5.58, S 5.51, K 5.79, I 5.41, C 4.95, D 5.81, L 5.36, Y 5.42, G 5.72, T 5.76, E 5.52, R 5.67
E8: R 4.43, N 4.53, F 3.27, Q 4.48, T 3.77, L 3.87, A 4.84, P 4.97, S 4.58, C 4.11, Y 3.39, D 5.48, I 4.26
S4: V 5.61, F 4.75, C 5.01, W 2.73, L 5.27, M 4.68, D 5.43, Q 4.75, T 4.16, R 4.88, A 4.3, N 4.79, Y 4.31, I 5.33, K 4.79, E 5.2, H 5.43, P 5.05, G 4.96
